Measurements from patent US20260265379A1.

Biological target: PD-L1 at the surface of transduced cells (UniProt Q9NZQ7)
Assay: flow cytometry, CHO-PD-L1 cells

Chain of PD-L1 at the surface of transduced cells (Q9NZQ7 19-290 limits assumed): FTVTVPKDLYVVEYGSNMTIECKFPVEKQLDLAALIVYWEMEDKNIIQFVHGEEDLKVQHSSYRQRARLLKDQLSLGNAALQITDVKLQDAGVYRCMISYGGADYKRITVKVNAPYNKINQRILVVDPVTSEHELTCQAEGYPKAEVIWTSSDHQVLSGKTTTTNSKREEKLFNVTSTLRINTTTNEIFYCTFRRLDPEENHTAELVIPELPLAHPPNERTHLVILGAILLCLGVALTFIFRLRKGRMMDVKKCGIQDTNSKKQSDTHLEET

MFI at 10 nM: 38000 MFI
MFI at 100 nM: 41600 MFI
Substance: Isotype Durvalumab (antibody)
